From paper PMC5681435 (2017) come the findings set out here.

B1: untagged p16INK4a [not stated] / GSTCDK4 [human] (parent complex)
chain 1: MEPAAGSSMEPSADWLATAAARGRVEEVRALLEAGALPNAPNSYGRRPIQVMMMGSARVAELLLLHGAEPNCADPATLTRPVHDAAREGFLDTLVVLHRAGARLDVRDAWGRLPVDLAEELGHRDVARYLRAAAGGTRGSNHARIDAAEGPSDIPD
chain 2: MATSRYEPVAEIGVGAYGTVYKARDPHSGHFVALKSVRVPNGGGGGGGLPISTVREVALLRRLEAFEHPNVVRLMDVCATSRTDREIKVTLVFEHVDQDLRTYLDKAPPPGLPAETIKDLMRQFLRGLDFLHANCIVHRDLKPENILVTSGGTVKLADFGLARIYSYQMALTPVVVTLWYRAPEVLLQSTYATPVDMWSVGCIFAEMFRRKPLFCGNSEADQLGKIFDLIGLPPEDDWPRDVSLPRGAFPPRGPRPVQSVVPEMEESGAQLLLEMLTFNPHKRISAFRALQHSYLHKDEGNPE

This assay covers variants of B1. The experiment in a line: HTRF displacement assay; CDK4 8 nM; value read at the highest [INK] point, about 500 nM; read off a plot. In general terms: TR-FRET usually uses a lanthanide donor and a delayed reading to cut background.
As to chain 1 D84N, the response is roughly 58 % Inhibition.
